± gives the uncertainty stated by the source.

This note sets out measurements from the supplement of paper PMC12042874.

This data set can be described thus: amyloid nucleation score (Sup35N fusion, yeast selection) (log enrichment); library NNK2; higher = more nucleation; inactive = no reads after selection. The procedure, abridged: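 DiMSum was used to calculate nucleation scores as log enrichment of output over input reads, centred on the mode score of non-aggregating sequences. Sequences with fewer than 100 input reads were not scored. Input and output came from Illumina sequencing of plasmid inserts in psi-negative yeast expressing peptides of 20 random codons fused to Sup35N, induced 24 hours with 100 μM copper sulfate and then grown 7 days at 30°C on medium lacking adenine and uracil.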

In turn, VLICFVSLRLKVGTLIPTTT returned an amyloid nucleation score of -0.37 ± 0.76.

Substance IDNLFWPRLSGPDFVI registered an amyloid nucleation score of -1.7 ± 1.1.

PNFRVVFCLRSV: the amyloid nucleation score was determined as 9.978 ± 0.024.

YLDRGYRGGFPFGKNVWTDG: the amyloid nucleation score was -1.36 ± 0.78.

For FWDSIKIHSKSLLSCIDGPW, the amyloid nucleation score was determined as 2.35 ± 0.066.

On to IKNVWFQFSCGGPGSLRVGS, for which the amyloid nucleation score amounted to 0.318 ± 0.32.

With QRIPWV, the amyloid nucleation score is -0.509 ± 1.1.

CGKYSS displayed an amyloid nucleation score of 7.602 ± 0.041.

In turn, RMSIFPGH showed an amyloid nucleation score of -1.04 ± 1.1.

IIGFLFMDFLLSCRFQFCT gave an amyloid nucleation score of -1.32 ± 0.45.

KFFFSCTTKFL displayed an amyloid nucleation score of 3.06 ± 0.1.

In the case of ITSSEVGHWYRVTEKCHIRM, the amyloid nucleation score is 1.2 ± 0.3.

On to CGLCMEGYSHEMIDRLSSIS, for which the amyloid nucleation score is 0.227 ± 0.56.

Take NYLASGQIIWLGYPSRSLSL: the amyloid nucleation score result was “inactive”.

NDLARSFRV: the amyloid nucleation score is -1.13 ± 1.1.

Consider CFLESGSLMLYEV, for which the amyloid nucleation score is -0.081 ± 1.1.

Substance QALQFIVSQRL came in with an amyloid nucleation score of 3.59 ± 0.11.

In turn, LSMVDCGASDGLEQVFGLAG had an amyloid nucleation score of 0.14 ± 0.33.

Substance SLTVTDIKLGHGRV gave an amyloid nucleation score of 6.2 ± 0.04.

For the substance YVLSCDPLVRYQGLEDRQQS, the amyloid nucleation score came out at 0.31 ± 0.62.

For the substance INVVRTNIKYTMTFCIEGTN, the amyloid nucleation score is 7.306 ± 0.032.

LPQVPRVFRS registered an amyloid nucleation score of -0.06 ± 1.1.

Substance YYCRCYSGVLVTRAYQGNPE returned an amyloid nucleation score of -0.168 ± 1.1.

On to KVFLWIMLWAMPHTSSGFKP, for which the amyloid nucleation score is -0.305 ± 0.48.

Regarding LALWCTWEVRLIDESAMTTF, the amyloid nucleation score was determined as 0.467 ± 0.29.

Take KNSYNVPEYLRLLLWGNGMC: the amyloid nucleation score result was “inactive”.

The substance SWNIFPQSNLKSKWDTIRCL had an amyloid nucleation score of -2.46 ± 0.62.

Substance RLWYHVICVDYDGGEYRSSG returned an amyloid nucleation score of 0.388 ± 0.36.

On to FVDVVPGKSGASET, for which the amyloid nucleation score is -0.126 ± 0.49.

For the substance EMCCTENCLEGSKVLAQFYC, the amyloid nucleation score was -1.02 ± 0.61.

For the substance TDISQEGPVNIL, the amyloid nucleation score entry is “inactive”.

With WDVKRIRKVSFDFVSRGWKG, the amyloid nucleation score is -0.293 ± 0.32.

YWELQSHMGRFNSSCHLRWV came in with an amyloid nucleation score of -1.7 ± 0.76.

Regarding QTGNFPIDHVQYCFFRITLS, the amyloid nucleation score is -1.28 ± 0.62.

The substance LNRVQLNLRGQRITLSHYQI registered an amyloid nucleation score of -0.536 ± 1.1.

For YIAIEYLFSFRGFRGTGVMG, the amyloid nucleation score was determined as 0.034 ± 0.63.

As to PYVTFITLCSAFKYVYKCWY, the amyloid nucleation score turned out to be 5.448 ± 0.047.

Take ELAMNIMMAFYYVCSIISTE: the amyloid nucleation score entry is “inactive”.

In turn, GSCPRSDAKSAADCIQV had an amyloid nucleation score of -0.177 ± 0.79.

In turn, LIDLKGQRSHGVTKGLTDFP returned an amyloid nucleation score of -0.406 ± 0.36.

As to HRFSMQALYRNIQEWSCEAW, the amyloid nucleation score is 2.07 ± 0.12.

Consider SHFSYKECRSAVRMLQYNGA, for which the amyloid nucleation score came out at 0.719 ± 0.52.

Substance DSNTSSDILGLSYLYGRTRL had an amyloid nucleation score of 0.168 ± 0.37.

As for LWVARHIRIEFMLTFRIYKA, the amyloid nucleation score was determined as 0.011 ± 1.1.

VRLFTVGWRSGKNVGNTSDA gave an amyloid nucleation score of -0.263 ± 1.1.

For the substance RWYSPWSWY, the amyloid nucleation score turned out to be 0.662 ± 0.36.

Substance VVSYFCCLDCSLNAYS returned an amyloid nucleation score of 9.384 ± 0.043.

VDFIKIKRIGPER: the amyloid nucleation score was -0.709 ± 0.38.

NWLLN came in with an amyloid nucleation score of -0.492 ± 0.76.

In turn, FVRQNVSFTLGKYYQWVVGM displayed an amyloid nucleation score of -0.933 ± 0.24.

On to SAQNDEKFLDPVSVIPRCKS, for which the amyloid nucleation score stood at 0.443 ± 0.56.

Substance ASMLWLLLDELLKWNDGVNN registered an amyloid nucleation score of 2.04 ± 0.099.

FCSGVLQMLLISLDNLGRVS: the amyloid nucleation score is -0.017 ± 1.

The substance HREWG came in with an amyloid nucleation score of 0.668 ± 0.46.

RPDQTRF came in with an amyloid nucleation score of -0.022 ± 0.5.

Take SNLFCLNTSLVQAVMMACPI: the amyloid nucleation score is 0.113 ± 1.1.

In turn, KYVALALERFMLAAHGTSLT yielded an amyloid nucleation score of -0.235 ± 0.33.

As to LAGSVTIPLPTCYSIMTSRP, the amyloid nucleation score amounted to 0.233 ± 0.77.

In the case of NTALSGDCVRCPSAYEWVKV, the amyloid nucleation score is 3.25 ± 0.11.

Turning to DKSAVMVFNRRYVPWFGIRY, the amyloid nucleation score entry is “inactive”.

The substance RWVWDGPLYMLFSCMCYIKR gave an amyloid nucleation score of 6.484 ± 0.064.

Regarding YLMRVRYSLCGLVVSVVAQD, the amyloid nucleation score turned out to be 0.856 ± 0.34.

As to INEFCATLQERRMCYLRMKL, the amyloid nucleation score was found to be 0.921 ± 0.74.

TVMLFVSLQRCH: the amyloid nucleation score result is “inactive”.

Regarding FEGVTYSRVV, the amyloid nucleation score worked out at 0.001 ± 0.54.

WVGHFIDISDATGRPWHMKA displayed an amyloid nucleation score of -0.107 ± 0.53.

FIKDKKSPSCCAN returned an amyloid nucleation score of -0.866 ± 0.4.

Turning to DGTYISKVNSRCVEDGARPR, the amyloid nucleation score was determined as 1.38 ± 0.34.

In the case of MSRSSPMIHFETCWHASAGF, the amyloid nucleation score was found to be 3.82 ± 0.044.

Consider IRCVNIKSLP, for which the amyloid nucleation score is -1.24 ± 1.1.

In turn, FYLSFRVECLGRR returned an amyloid nucleation score of 4.782 ± 0.045.

As for SWCACSLGSQYGTMSGWLLY, the amyloid nucleation score stood at 0.162 ± 0.37.

In turn, CHRLDWINYLCGSHKAIMIV displayed an amyloid nucleation score of -0.472 ± 0.5.

As for NRAVGNEAYCRSGWSGFHSL, the amyloid nucleation score was -0.459 ± 1.1.

Regarding NDKFCATDESVRSRSI, the amyloid nucleation score is 0.042 ± 0.37.

Take LYLVVYIVASGSYACVRRST: the amyloid nucleation score was 0.546 ± 0.4.

On to FFCPRGRAFLSSRM, for which the amyloid nucleation score is -0.788 ± 0.79.

As to DFPRRWSWFITRESWGVWRT, the amyloid nucleation score came out at 1.65 ± 0.34.

LGTIGYVDCFIDSITCYMVL gave an amyloid nucleation score of 7.953 ± 0.028.

In the case of EALSLLSR, the amyloid nucleation score is -0.22 ± 1.

VFDGVSSGTCHLCAAWSWDG: the amyloid nucleation score worked out at 1.56 ± 0.14.

Turning to DMQGYFCSLTLMFMFRPRIM, the amyloid nucleation score entry was “inactive”.

With KNTYKQACWQAELHKGLLVG, the amyloid nucleation score amounted to 0.748 ± 0.17.

As to MKLNVWGFFDGKQRLMESAA, the amyloid nucleation score is -1.2 ± 1.1.

As for QGDWVEGV, the amyloid nucleation score worked out at 0.144 ± 0.79.

YSRGGKMVAARGCGSAEPDA displayed an amyloid nucleation score of -0.64 ± 0.76.

The substance VKVVVNSSDNCVSIDWSYGR registered an amyloid nucleation score of 2.14 ± 0.17.

In the case of STGRNMKPSLNASFLRLRMF, the amyloid nucleation score is -0.228 ± 1.1.

NFRGGFWPVNMNTRLIWSGV: the amyloid nucleation score was -1.52 ± 0.62.

As for AISSEGELLAVDFWNSNLDP, the amyloid nucleation score was -0.509 ± 0.23.

The substance NNLLYLLLLYVQTSAE had an amyloid nucleation score of 4.49 ± 0.099.

With SEFSNFKSLQPVYH, the amyloid nucleation score is -0.047 ± 1.1.

Consider IPSWCFVIYSRNGYGFLHCT, for which the amyloid nucleation score result is “inactive”.

In the case of HEESDGPNERTILVCSICVI, the amyloid nucleation score worked out at 0.487 ± 0.28.

As for SLTSGRLYEIIIRIYHASFM, the amyloid nucleation score is -1.46 ± 0.34.

Regarding STGILRS, the amyloid nucleation score result was “inactive”.

The substance YVNRVSCKVASRNCHHNGKS returned an amyloid nucleation score of -0.235 ± 1.1.

SYRNTIWVSINALGVSWEAS had an amyloid nucleation score of 2.52 ± 0.078.

Regarding RFWLESIWLDNL, the amyloid nucleation score stood at 0.25 ± 0.42.

The substance TLFSSRRYSVGERSQVTCLI registered an amyloid nucleation score of -0.492 ± 0.55.

As to YQRNSFNDHADYPYHELVKS, the amyloid nucleation score stood at 0.222 ± 0.64.

Turning to HASVHL, the amyloid nucleation score is 0.497 ± 0.34.
